Experimental data: patent publication US20210238281A1 (INSTITUT NATIONAL DE LA SANTE ET DE LA RECHERCHE MEDICALE …, published 2021)
Substitutions are numbered along the chain they refer to.

T1: recombinant murine MOG protein (murine, UniProt Q61885 29-156, limits assumed)
T1 construct: Bought recombinant protein; also called MMOG
T1 sequence (looked up): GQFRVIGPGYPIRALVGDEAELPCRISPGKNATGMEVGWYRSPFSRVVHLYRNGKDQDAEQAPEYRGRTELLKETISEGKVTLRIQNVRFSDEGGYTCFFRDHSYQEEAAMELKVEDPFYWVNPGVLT

T2: recombinant human MOG protein (human, UniProt Q16653 30-154, limits assumed)
T2 construct: Bought recombinant protein; also called HMOG
T2 sequence (looked up): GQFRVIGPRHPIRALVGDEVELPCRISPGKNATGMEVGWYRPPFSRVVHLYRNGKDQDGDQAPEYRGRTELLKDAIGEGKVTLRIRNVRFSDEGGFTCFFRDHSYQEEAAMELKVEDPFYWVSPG

B1: anti-MOG MO3J-12 antibody (scFv, V domains shown)
VH: EVQLLESGGGLVQPGGSLRLSCAASGFTFSTYWMHWVRQAPGRGLVWVSRINTDGSSTDYADSVKGRFTISRDNAKNTLYLQMNSLRAEDTAVYSCARGGQLVAAANDNWLDPWGQGTLVTVSS
VL: AIQLTQSPSSLSASAGDRVTITCRASQSINNYLNWYQQKPGKAPKVLIYGASNLQSGVPSRFSGSGSGTDFTLTISSLQPEDFATYYCQQSYSTPRTFGQGTKVEIK
B2: anti-MOG MO3J-23 antibody (scFv, V domains shown)
VH: DQVQLVQSGAEVKPGASVKVSCKASGYTFTSYGISWVRQAPGQGLEWMGWISAYNGNTNYAQKLQGRVTMTTDTSTSTAYMELRSLRSDDTAVYYCARDPVGSLRPYYMDVWGEGTTVTVSS
VL: DIVMTQSPSTLSASVGDRVTITCRASQSISTWLAWYQQKPGKAPKLLIYAASSLQSGVPSRFSGSGSGTDFTLTISSLQPEDFATYYCQQSYSTPRTFGQGTKVEIK
B3: anti-MOG MO3B-03 antibody (scFv, V domains shown)
VH: QVQLQQSGPGLVRPSQTLSLTCAISGDSVSSSSAAWNWVRSPSRGLEWLGRTYYRSKWYYDYAVSVKNRIAINPDTSKNQFSLHLNSVTPEDTAVYYCATGWLRGHLDYWGQGTLVTVSS
VL: AIQMTQSPSSVSASVGDRVTITCRATQSISTYLNWYQQKVGRGPKLLVYAASRLQTGVPSRFSGSGSGTDFTLTISSLQPEDSATYYCQQSYSAPPAFGGGTKVEIK
notes: T0004 labels followed
B4: anti-MOG MO3F-02 antibody (scFv, V domains shown)
VH: QVQLQQSGPGLVKPSQTLSLTCAISGDSVSSNSAAWNWIRKSPSRGLEWLGRTYYRSKWYNDYAVSVKSRITINPDTSKNQFSLQLSSVTPEDTAVYYCARASAGTFGYWGQGTLVTVSS
VL: DIVMTQSPSSLSASVGDRVTMTCRASQTINTYLNWYQQKPGKAPKLLIYAASTLQSGVPSRFSGSGSGTDFSLTISSLQPEDFATYYCQHGYNNPPFTFGPGTKVDIK
B5: anti-MOG MO4H-46 antibody (scFv, V domains shown)
VH: QVQLVQSGAEVKKPGASVKVSCKASGYTFTSYAMHWVRQAPGQRLEWMGWINAGNGNAKYSQKFQGRVTLTRDTSASTAYMKLSSLRSEDTAVYYCARGAPTYRYFDLWGRGTLVTVSS
VL: QSVLTQPPSVSAAPGQKVTISCSGSSSNIGNNYVAWYQQLPGTAPKLLIYDNNKRPSGIPDRFSGSKSGTSATLGITGLQTGDEADYYCGTSDSSLSAVVFGGGTKLTVL
B6: anti-MOG MO4H-03 antibody (scFv, V domains shown)
VH: QVQLVQSGTEVKKPGASVKVSCKVSGYTLTELSMHWVRQAPGKGLEWMGGFDPEDGETIYAQKFQGRVTMTEDTSTDTAYMELSSLRSEDTAVYYCATGATGAFDIWGQGTTVTVSS
VL: DIVMTQTPLSSPVTLGQPASISCRSSQSLVDSDGNTYLNWLQQRPGQPPRLLIYKISNRFSGVPDRFSGSGAGTEFTLKISRVEAEDVGVYYCMQATQFPHTFGQGTKLEIK
B7: anti-MOG MO4B-42 antibody (scFv, V domains shown)
VH: MAGSLQVDQVQLVQSGAEVKRPGESLKISCEGSGYSFTSSWIGWVRQMPGKGLECMGIIYPGDSDTRYSPSFQGHVTISADKSISTAYLQWSSLRASDTAMYYCARAYHSDYGFDFWGQGTLVTVSS
VL: EIVLTQPLSVSESPGKTVTISCTRSSGSIANNFVQWYQRRPGSSPTTVIYENDQRPSGVPDRFSGSIDSSSNSASLTITGLETQDEADYYCQSFNDDVGGGNSGGGTK
B8: anti-MOG MO4H-04 antibody (scFv, V domains shown)
VH: EVQLVQSGAEVKKPVASVKVSCKASGYTFTSYGISWVRQAPGQGLEWMGWISAYNGNTNYAQKLQGRVTMTTDTSTSTAYMELRSLRSDDTAVYYCARNMGCSSTSCFVSWFDPWGQGTLVTVSS
VL: QSALTQPPSASGSPGQSVTISCTGTHSDVGSFDSVSWYQQHPDKAPKLIIYDVNKRPAGVPHRFSGSKSGNTASLTVSGLQSEDEADYYCNSYAGVDNFVFGTGTKVTVL
B9: anti-MOG MO3J-19 antibody (scFv, V domains shown)
VH: B8 VH with V15G
VL: QSVLTQPPSASGTPGQRVTISCSGSTSNIGSQIVNWYQQLPGTAPRLIIYNDNERPSGVSDRFSGSKSDTSASLAISGLQSEDEADYYCAAWDDSLNGYVFGTGTKVTVL
B10: anti-MOG MO3J-05 antibody (scFv, V domains shown)
VH: B8 VH with V15G
VL: not shown
B11: anti-MOG MO4B-43 antibody (scFv, V domains shown)
VH: DEVQLLESGGGLVPGGSLRLSCEVSGFSFSNHAMHWVRQAPGKALEHLSVLGSDGRSTYYADSVKGRFTISRDISKTTVYLQMGSLRPGDMGVYYCARGLYGDHWDASDLWGQGTMVTVSS
VL: EIVMTQSPATLSVSPAERVILSCRASQSVGNNVAWFQQKPGQAPRLLIHGASSRATGIPTRFSGSGSGTELTLTISSLQSEDFAVYYCQQYGSAPITFGQGTRLEIK
B12: anti-MOG MO4H-51 antibody (scFv, V domains shown)
VH: QVQLVQSGAEVKKPGASVKVSCKASGYTFTSYGMHWVRQAPGQRLEWMGWINPGNGNTKYSQKFQGRVTITRDTSASTAYMDLSSLRSEDTAVYYCARLPRIGGWFDPWGQGTLVTVSS
VL: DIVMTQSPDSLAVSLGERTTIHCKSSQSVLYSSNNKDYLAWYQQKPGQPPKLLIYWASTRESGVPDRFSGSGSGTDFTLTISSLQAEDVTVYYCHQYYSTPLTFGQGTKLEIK
B13: anti-MOG MO3J-72 antibody (scFv, V domains shown)
VH: EVQLVESGGGSVKPGGSLRLSCAASGFRFDDYAMHWVRQAPGKGLEWVSGISWNSGAIGYADSVQGRFTISGDNAKNTLYLQMNGLRVEDTAMYYCARDGHGDYPIDYWGQGTLVTVSS
VL: QSVLTQPPSVSGAPGQRVSISCTGSGSNIGAGFDVHWYQQVPGTTPKLLIYGNNNRPSGVPDRFSGSTSATSASLAITGLQADDEADYYCQSYDRSLRYVFGTGTKLTVL
B14: anti-MOG MO4H-55 antibody (scFv, V domains shown)
VH: QVQLQQSGPGLVKPSQTLSLTCAISGDSVSSNSAAWNWIRQSPSRGLEWLGRTYYRSKWYNDYAESVKSRMTVTSDTSKNQVSLHLNSVTPEDTAVYYCAREHIAVPGVFDIWGQGTLVTVSS
VL: DVVMTQPPSASGTPGQGVTISCSGSSSNIGSNTVNWYQQLPGTAPKLLIYGSGQRPSGVPDRFSGSRSGTSASLAISGLQSEDEADYYCAAWDDSLNGRVFGQGTKVDIT
B15: anti-MOG MO4H-65 antibody (scFv, V domains shown)
VH: EVQLVQPGAEVKKPGASVKVSCKASDYTFTSYGISWVRQAPGQGLEWMGWISAYNGNTYYARKFGRVTMTTDTSTTTAYMELRRLRSEDTAVYYCARSGVDNIDYLFDYWGQGTLVTVSS
VL: EIVMTQSPGTMSVSPGESATLSCRASQSVSSNLAWYQQKPGQAPRLLIYGASTRATGLPARFSGSGSRTDFTLTISSLQPEDFATYYCQQTTSFPLTFSGGTKLEIT

Biological target: T1, recombinant murine MOG protein
Test: phage-scFv ELISA on coated recombinant murine MOG (0.5 µg/well), anti-M13 HRP, OD450 over BSA background
Experimental: (§1) The binding characteristics of the scFvs expressed on the surface of the phages isolated during the screening were determined using an ELISA assay using the recombinant MOG protein (R&D system). Along with the selected clones, phage-scFv-8-18C5 is expressed to serve as a positive control for ELISA. Briefly, phage-scFv were produced in the form of clones isolated on a 96-well plate in 800 μl of 2YT/ampicillin/glucose cultures infected with the helper phage M13K07 (as described previously). The phages produced overnight at 26° C. were then recovered in the supernatants after 30 minutes of centrifugation at 3000 g. These supernatants were directly diluted 1/2 in PBS/4% BSA/0.1% Tween 20 and tested on Maxisorp immunoplates previously coated with 0.5 μg of human or murine MOG or PBS (background control (bdf) in BSA)/well and blocked with 4% BSA in PBS. After incubation for 2 hours at 37° C., the wells were washed 3 times with PBS/0.1% Tween-20 and bound phages-scfv were detected with anti-M13 HRP antibody (GE Healthcare). The plate is read at 450 nm (OD) on a plate reader (TECAN). The results are expressed as a ratio: OD on target/OD bdf (OD on an uncoated plate saturated with BSA) and the ratios are compared with that obtained for the positive control.

| Binder | ratio OD on target/OD bdf [ratio] |
| --- | --- |
| B1 | 8.99 |
| B2 | 7.46 |
| B3 | 5.55 |
| B4 | 22.1 |
| B5 | 4.68 |
| B6 | 9.12 |
| B7 | 6.68 |
| B8 | 9.78 |
| B9 | 5.66 |
| B10 | 7.53 |
| B11 | 9.56 |

Biological target: T2, recombinant human MOG protein
Test: phage-scFv ELISA on coated recombinant human MOG (0.5 µg/well), anti-M13 HRP, OD450 over BSA background
Experimental: as §1

| Binder | ratio OD on target/OD bdf [ratio] |
| --- | --- |
| B1 | 16.4 |
| B12 | 3.46 |
| B2 | 15.9 |
| B3 | 6.23 |
| B4 | 13.8 |
| B5 | 6.57 |
| B6 | 5.14 |
| B13 | 2.05 |
| B14 | 2.99 |
| B7 | 6.11 |
| B15 | 2.44 |
| B8 | 9.36 |
| B9 | 11.7 |
| B10 | 16.4 |
| B11 | 5.82 |
